Molecular target: the molecule itself
Test: AUC; sedimentation velocity, 0.2 mg/mL enzyme, 50 mM Tris-HCl, 150 mM NaCl, pH 7.4, 48 k rpm, c(s) distribution (SEDFIT); self-association, shares of monomer, dimer, trimer and tetramer

B1: Kluyveromyces lactis β-galactosidase (enzyme, UniProt P00723 2-1025, looked up)
chain: SCLIPENLRNPKKVHENRLPTRAYYYDQDIFESLNGPWAFALFDAPLDAPDAKNLDWETAKKWSTISVPSHWELQEDWKYGKPIYTNVQYPIPIDIPNPPTVNPTGVYARTFELDSKSIESFEHRLRFEGVDNCYELYVNGQYVGFNKGSRNGAEFDIQKYVSEGENLVVVKVFKWSDSTYIEDQDQWWLSGIYRDVSLLKLPKKAHIEDVRVTTTFVDSQYQDAELSVKVDVQGSSYDHINFTLYEPEDGSKVYDASSLLNEENGNTTFSTKEFISFSTKKNEETAFKINVKAPEHWTAENPTLYKYQLDLIGSDGSVIQSIKHHVGFRQVELKDGNITVNGKDILFRGVNRHDHHPRFGRAVPLDFVVRDLILMKKFNINAVRNSHYPNHPKVYDLFDKLGFWVIDEADLETHGVQEPFNRHTNLEAEYPDTKNKLYDVNAHYLSDNPEYEVAYLDRASQLVLRDVNHPSIIIWSLGNEACYGRNHKAMYKLIKQLDPTRLVHYEGDLNALSADIFSFMYPTFEIMERWRKNHTDENGKFEKPLILCEYGHAMGNGPGSLKEYQELFYKEKFYQGGFIWEWANHGIEFEDVSTADGKLHKAYAYGGDFKEEVHDGVFIMDGLCNSEHNPTPGLVEYKKVIEPVHIKIAHGSVTITNKHDFITTDHLLFIDKDTGKTIDVPSLKPEESVTIPSDTTYVVAVLKDDAGVLKAGHEIAWGQAELPLKVPDFVTETAEKAAKINDGKRYVSVESSGLHFILDKLLGKIESLKVKGKEISSKFEGSSITFWRPPTNNDEPRDFKNWKKYNIDLMKQNIHGVSVEKGSNGSLAVVTVNSRISPVVFYYGFETVQKYTIFANKINLNTSMKLTGEYQPPDFPRVGYEFWLGDSYESFEWLGRGPGESYPDKKESQRFGLYDSKDVEEFVYDYPQENGNHTDTHFLNIKFEGAGKLSIFQKEKPFNFKISDEYGVDEAAHACDVKRYGRHYLRLDHAIHGVGSEACGPAVLDQYRLKAQDFNFEFDLAFE
notes: β-galactosidase of Kluyveromyces lactis, LAC4 gene (Gene ID 2897170), amplified from plasmid pLX8 and cloned in YEpFLAG; Monomer 118 kDa as printed; also called Kl-β-Gal; native Kl-β-Gal; not shown: FLAG, N-terminal, kept
stoichiometry N: 2
